# What was measured:
# Assay in all cases: EMSA
# [1] = molecular target: NF-kB p65/p50 heterodimer (Homo sapiens) (UniProt Q04206+P19838); conditions: 50% competition not reached; same for p50/p50
# [2] = molecular target: T1, NF-kB p50/p50 homodimer (Homo sapiens) (UniProt P19838); conditions: score 100 = less than 50% competition at any ratio tested
# T1 sequence: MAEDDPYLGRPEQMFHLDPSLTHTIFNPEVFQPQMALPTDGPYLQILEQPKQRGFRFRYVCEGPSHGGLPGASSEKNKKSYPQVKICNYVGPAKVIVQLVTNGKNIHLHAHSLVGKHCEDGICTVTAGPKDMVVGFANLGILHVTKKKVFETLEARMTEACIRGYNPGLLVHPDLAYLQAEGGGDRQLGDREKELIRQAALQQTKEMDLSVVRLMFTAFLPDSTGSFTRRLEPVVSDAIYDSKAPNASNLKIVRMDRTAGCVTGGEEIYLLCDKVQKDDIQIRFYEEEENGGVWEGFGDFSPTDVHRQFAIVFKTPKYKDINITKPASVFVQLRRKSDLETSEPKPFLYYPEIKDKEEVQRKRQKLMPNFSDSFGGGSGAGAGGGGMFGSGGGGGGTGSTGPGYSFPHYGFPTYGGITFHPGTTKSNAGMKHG
# E2F = tested on: E2F
# Chain of NF-kB p65/p50 heterodimer (Homo sapiens) (Q04206 whole entry, one chain of several): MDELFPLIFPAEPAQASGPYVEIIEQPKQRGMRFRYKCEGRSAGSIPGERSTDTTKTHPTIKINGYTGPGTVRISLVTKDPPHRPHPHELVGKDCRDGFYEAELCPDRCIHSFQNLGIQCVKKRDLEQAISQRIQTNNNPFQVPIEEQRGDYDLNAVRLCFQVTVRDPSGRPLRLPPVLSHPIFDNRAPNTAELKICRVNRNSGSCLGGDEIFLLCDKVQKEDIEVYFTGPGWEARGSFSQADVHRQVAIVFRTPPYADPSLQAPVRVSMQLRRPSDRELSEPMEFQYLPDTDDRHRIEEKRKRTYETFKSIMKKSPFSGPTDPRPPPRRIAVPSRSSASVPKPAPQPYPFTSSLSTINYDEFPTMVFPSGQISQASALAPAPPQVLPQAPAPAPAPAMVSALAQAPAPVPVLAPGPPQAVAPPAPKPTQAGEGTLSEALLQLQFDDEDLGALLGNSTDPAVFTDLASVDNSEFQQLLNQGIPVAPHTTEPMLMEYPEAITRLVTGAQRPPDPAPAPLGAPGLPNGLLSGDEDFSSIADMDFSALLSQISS
sequence,measurement,setting,value
AGTTGAGACTTTCGCAGGC (double strand) [decoy 159 G-Z],IC50,[1],100 score
same,IC50 (fold molar excess),[2],> 100
CTAGATTTCCCGCG (double strand) [E2F reference decoy],binding signal (% competition at 10-fold excess),E2F; 40% at 40-fold excess,7
CTAGATTTCCCGCGGATC (double strand) [E2F novel decoy],binding signal (% competition at 10-fold excess),E2F; 90% at 40-fold excess,> 60

# From patent publication US20060069055
